Measured values taken from paper PMC7754295.

Legend:
Test in all cases: native gel or EMSA
[1] = target: NpHV1‐GFP (Nicoletia phytophila voltage‐gated proton channel 1 with GFP) (Nicoletia phytophila)
[2] = target: NpHV1‐GFP with C‐terminal StrepTagII (Nicoletia phytophila)
[3] = target: NpHV1‐GFP with C‐terminal deca‐His Tag (Nicoletia phytophila)

Question: “NpHV1‐GFP (Nicoletia phytophila voltage‐gated proton channel 1 with GFP) (natural protein)” was tested. Which stoichiometry N [1] did it give?
Answer: 2

Question: With “NpHV1‐GFP with C‐terminal StrepTagII (natural protein)” as the substance, how does the stoichiometry N [2] read?
Answer: 2

Question: How did the stoichiometry N [3] turn out when “NpHV1‐GFP with C‐terminal deca‐His Tag (natural protein)” was run?
Answer: 2
